Data reported in article PMC3098868.

Key:
[1] = target: human insulin receptor, isoform B (holoreceptor) (human) (UniProt P06213); assay: radioligand binding; scintillation proximity assay (SPA): competition of [125I]TyrA14-labelled insulin binding to solubilized holoreceptor, with IR-specific antibody 83-7; analogues taken directly from yeast supernatant after conversion; four-parameter logistic model; affinity relative to human insulin within the same plate [IC50(insulin)/IC50(analogue) x 100%]; near physiological pH
[2] = target: human insulin receptor, isoform A (holoreceptor) (human) (UniProt P06213); assay: as above
[3] = target: human insulin receptor, isoform B (holoreceptor) (human) (UniProt P06213); assay: radioligand binding; scintillation proximity assay (SPA): competition of [125I]TyrA14-labelled insulin binding to solubilized holoreceptor, with IR-specific antibody 83-7; purified ligand (human insulin standard, tracer, purified unglycosylated [A8H, B25N]); near physiological pH

| relative affinity (IC50 insulin/IC50 analogue x 100%) (% of human insulin) [1] | relative affinity (IC50 insulin/IC50 analogue x 100%) (% of human insulin) [2] | fold difference in relative binding potency, IR-B over IR-A [3] [fold] | Substance |
| --- | --- | --- | --- |
| 24 | 10 |  | [A8H, B25A, B27E] desB30 insulin analogue (ligand) |
| 82 | 43 |  | [A8H, B25H, B27D] desB30 insulin analogue (ligand) |
| 140 | 67 |  | [A8H, B25H, B27E] desB30 insulin analogue (ligand) |
| 38 | 10 |  | [A8H, B25N, B27D] desB30 insulin analogue (ligand) |
| 57 | 15 |  | [A8H, B25N, B27E] desB30 insulin analogue (ligand) |
| 44 | 22 | 2 | [A8H, B25N] desB30 insulin analogue (ligand) |
| 459 | 714 |  | [A8H, B25Y, B27E] desB30 insulin analogue (ligand) |
| 308 | 308 |  | [A8H] desB30 insulin analogue (ligand) |
| 8 | 4 |  | [B25N] desB30 insulin analogue (ligand) |
